The series is described as follows: amyloid nucleation score (Sup35N fusion, yeast selection) (log enrichment); library NNK3; higher = more nucleation; inactive = no reads after selection. An outline of the steps: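 Output and input plasmid inserts were sequenced by Illumina after psi-negative yeast carrying Sup35N fused to peptides of 20 random codons had been induced 24 hours with 100 μM copper sulfate and grown 7 days at 30°C on medium lacking adenine and uracil. The nucleation score is the DiMSum log enrichment of output over input reads, centred on the mode score of non-aggregating sequences. Sequences with under 100 input reads were excluded.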

± gives the uncertainty stated by the source.

Consider HSNVGCKFAIKYSLAFCGVK, for which the amyloid nucleation score result was “inactive”.

With HCQSRRWTKFLYMGWLPSSS, the amyloid nucleation score is 1.55 ± 0.1.

As for VLVNHGFYW, the amyloid nucleation score entry is “inactive”. Regarding GDHSDWRKRGSLLNGVVLCV, the amyloid nucleation score is -0.5 ± 1.5. In the case of SSESDVNLDVMSKYKFGNIH, the amyloid nucleation score entry is “inactive”. With AMMHNIILFKFVLGYVLMSR, the amyloid nucleation score entry was “inactive”. Next, VHKYSVDFGKGW: “inactive”. With GGRDNTEIDVMTWRRRPGKS the entry was “inactive”; with LRNIMGECDSAWKDVMVGVA, “inactive”; with IVLIKDYYSIRFDSEGIVDI, “inactive”. Turning to FVASDLLFGVRDQSVFSLSQ, the amyloid nucleation score result was “inactive”.

For SCPIRDSGTGSYL, the amyloid nucleation score result was “inactive”. Turning to TCFVLQNKYVSRCGCWMCYS, the amyloid nucleation score came to 2.12 ± 0.051. On to LSMVRLNFTRIC, for which the amyloid nucleation score entry is “inactive”.

With QGNAVHRDASSGWMNSAFDR, the amyloid nucleation score result was “inactive”. For ACFLIYYLR, the amyloid nucleation score result is “inactive”. Next, NYLLEEEYMISCIEAITLQP: -0.345 ± 0.82; HECVYYSSLTQSYVSVYIFT: 2.65 ± 0.077. In turn, FNIYCVGPNYATRGAGWVLL displayed an amyloid nucleation score of 1.78 ± 0.095. PTIQQDWIAFYIHSCEFLVL: the amyloid nucleation score result is “inactive”. Regarding RQVVRSTLRLSWSIFLYSYM, the amyloid nucleation score entry was “inactive”.

With VLLGTSECHSHKILQGKSAV, the amyloid nucleation score result was “inactive”. As to AGAVYVTAPLIAREDVVACY, the amyloid nucleation score result was “inactive”. Consider CPPGWRCQHKLDLTLGPDRW, for which the amyloid nucleation score result was “inactive”.

In the case of MYRITQGHLR, the amyloid nucleation score result was “inactive”. For WRDFLYLRHGFQYGIRPMSE, the amyloid nucleation score entry is “inactive”.

Turning to KNFSFKATDWIVKSSVARCR, the amyloid nucleation score result is “inactive”. As to YTFTRV, the amyloid nucleation score entry was “inactive”.

ARATALAVFCIGTDYGSIES: the amyloid nucleation score was -0.319 ± 0.37. As to FLVLTNHRGARVRASCVMDR, the amyloid nucleation score entry was “inactive”.

As to CAQTYPIRMYS, the amyloid nucleation score entry was “inactive”. With RAYSLLVRQIVRCNESG, the amyloid nucleation score result was “inactive”. Take WHMWMESKLWQPQRATSVFP: the amyloid nucleation score entry was “inactive”.

With IKSHVAIDSVPER, the amyloid nucleation score entry is “inactive”. As for LGYLRFVLIYQTCCQLTKSP, the amyloid nucleation score is -0.617 ± 0.6. On to KSYMYILKWAVLVLCSRSGL, for which the amyloid nucleation score entry is “inactive”. With EGNMLASRSSGEPS the entry was “inactive”. For the substance VFGET, the amyloid nucleation score result was “inactive”. Turning to VFNWYEVVFTFWCNMTANGM, the amyloid nucleation score was 1.49 ± 0.069. Next, FKFGLQLIRCMDFHWMF: “inactive”; PIVEYVFTPMF: “inactive”. Next, KPSSFNDAIR: “inactive”. Consider SANGMSNRRYSDHHLYVVSA, for which the amyloid nucleation score entry is “inactive”.

GRHNKCMVDLVEDFQLASIW: the amyloid nucleation score result was “inactive”. Turning to MCSPYFMSTSNTIFQSTRYG, the amyloid nucleation score turned out to be 1.12 ± 0.12. Consider IISDQEFSYETCDFSYFCKG, for which the amyloid nucleation score result was “inactive”. VYIMYLSGCCRCHVPMNEGT: the amyloid nucleation score amounted to 2.05 ± 0.073. Turning to CLLEHFK, the amyloid nucleation score result is “inactive”. With RLGEGKCTPYQWFVSNSTSN the figure was -0.166 ± 0.66; with NSCLRLSSHRMMFLAIAVTC, “inactive”; with RRKLRGALTVEMVFSPVYRR, “inactive”. For the substance LHLYNVDVNLIGPQVY, the amyloid nucleation score result is “inactive”. Regarding TYYSLVF, the amyloid nucleation score result was “inactive”.

On to PGYGS, for which the amyloid nucleation score entry was “inactive”. Regarding LVWSSRPTSW, the amyloid nucleation score entry is “inactive”. Consider LWLFSGCFGYYVILATLYFL, for which the amyloid nucleation score entry is “inactive”.

As to QFLLGSWYRLLRSGTVNSPS, the amyloid nucleation score result is “inactive”. Take NLLSDSVDMYINAGVDILLA: the amyloid nucleation score result was “inactive”. YSVDGICTRAVLGPVDWVNG: the amyloid nucleation score entry was “inactive”. Turning to QFLLGWNPNTSDLVLTFVQQ, the amyloid nucleation score was determined as 1.15 ± 0.14.

For the substance IIVFLRLSPELCVMCVRR, the amyloid nucleation score entry is “inactive”.

Consider HSRAVLTLLW, for which the amyloid nucleation score result is “inactive”.

As to FTMMCVYMSWQSGSQRTVTI, the amyloid nucleation score result is “inactive”. Turning to GDVIMCFNFRTFLSTITPGS, the amyloid nucleation score turned out to be 1.96 ± 0.092. As to GMFDCMIELYISGPDLGQGS, the amyloid nucleation score result was “inactive”. Next, PNAEGFFSVSGFCVVLNQSM: 1.34 ± 0.087.

Consider NVAGM, for which the amyloid nucleation score entry is “inactive”. On to ANKSCGHVDWDIGESYMARL, for which the amyloid nucleation score result is “inactive”.

Take TFSQGSWRTESSLRDGGCLD: the amyloid nucleation score result is “inactive”.

Turning to RDYKAHYLRCLYLWTMSLP, the amyloid nucleation score entry is “inactive”. Next, GFGFRAVMPMLYFEYYGQR: 0.793 ± 0.12; TDRVNFSRLFSLIHDWLTPG: “inactive”; CCIYQHIFYMRTYCIRT: “inactive”.

On to TCNIFLGAPHGAVGRCCRAR, for which the amyloid nucleation score came out at 1.82 ± 0.11.

With KKFLAPCSRCWPKMDITRLN, the amyloid nucleation score result was “inactive”. For VVLTMMHRHLYVSCKLRFCS, the amyloid nucleation score result was “inactive”. As to YPSGVYKFFAASATCWIM, the amyloid nucleation score entry is “inactive”. Consider LVSHLIGFSCRFNPRSERFC, for which the amyloid nucleation score came out at 1.29 ± 0.1.

SNIGHM: the amyloid nucleation score result was “inactive”. With VRVSLDRTGYKSSCHVVSRG the entry was “inactive”; with SYCHRRLLSRVSLLVASSVK, “inactive”; with GSRVLKAWGSLSLILTSYDG, “inactive”. Regarding ILVFILYHCCIIHLGLNLAK, the amyloid nucleation score result was “inactive”. For the substance SPDVLFESKYRFWDMLSQIA, the amyloid nucleation score result was “inactive”.

Regarding AWSVIMCFIWNRCKRRSS, the amyloid nucleation score entry was “inactive”.

In the case of VVGFDSCGRWEVNVSYDSGT, the amyloid nucleation score result is “inactive”. Consider TLDILLE, for which the amyloid nucleation score result is “inactive”.

MRNVVSSISRCFDMKAVQQR: the amyloid nucleation score entry is “inactive”. SRRSHWFWEPSDTCASFTRP: the amyloid nucleation score result is “inactive”. For FVVFCRNPNSGLGNCTVSCD, the amyloid nucleation score entry is “inactive”. As to APDFATIFITRWGDIQTLLV, the amyloid nucleation score entry was “inactive”.

As for SHFTEFPYLGLHTYAVVE, the amyloid nucleation score entry is “inactive”. With LRCWYFLNMMMPYPPPSIKW, the amyloid nucleation score entry is “inactive”. AEGLCCMANLWSCAGSRTYT registered an amyloid nucleation score of 0.947 ± 0.13. With TEGLKIFDDET, the amyloid nucleation score entry is “inactive”. For LKTCFIP, the amyloid nucleation score result is “inactive”.

The values above are taken from the supplement of paper PMC12042874.
